PMC10201434, “The DNA replication initiation protein DnaD recognises a specific strand of the Bacillus subtilis chromosome origin” (Nucleic Acids Research, 2021)
Numbering of substitutions follows the chain as printed.

Assays:
[1] = target: the molecule itself; experiment: SEC-MALS; 20°C; 40 mM Tris-HCl pH 8, 500 mM NaCl, 1 mM EDTA, 20 mM imidazole, 2.5% v/v glycerol; 100 μl injected
[2] = target: T1, DnaD (Bacillus subtilis 168CA, UniProt P39787 1-232); experiment: fluorescence polarisation; FP: 10 mM HEPES-KOH pH 7.5, 1 mM Mg acetate, 100 mM K glutamate, 20 C, 1.875 nM DNA, DnaD up to 500 nM, 10 min; Bpa crosslinking conditions not in material; conditions: protein: recombinant; tags: His14-SUMO tag removed; chain copies: 4; label: fluorescein 5'
T1 sequence: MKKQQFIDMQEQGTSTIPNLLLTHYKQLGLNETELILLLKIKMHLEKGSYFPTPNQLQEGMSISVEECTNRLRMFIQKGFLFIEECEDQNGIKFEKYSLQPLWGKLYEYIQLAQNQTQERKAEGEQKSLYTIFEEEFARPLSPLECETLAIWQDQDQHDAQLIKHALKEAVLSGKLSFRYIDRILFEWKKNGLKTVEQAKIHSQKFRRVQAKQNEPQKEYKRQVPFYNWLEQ

[3] = target: T2, DnaD L22A (Bacillus subtilis 168CA, UniProt P39787 1-232, L22A); experiment: as above; conditions: protein: recombinant; tags: His14-SUMO tag removed; label: fluorescein 5'
T2 sequence: T1 sequence with L22A

[4] = target: T3, DnaD F6A (Bacillus subtilis 168CA, UniProt P39787 1-232, F6A); experiment: as above; conditions: protein: recombinant; tags: His14-SUMO tag removed; chain copies: 2; label: fluorescein 5'
T3 sequence: T1 sequence with F6A

[5] = target: the molecule itself; experiment: SEC; Superdex 200 Increase 10/300GL, 4°C; 40 mM Tris-HCl pH 8, 500 mM NaCl, 1 mM EDTA, 20 mM imidazole; 500 μl samples
[6] = target: T4, DnaD1-224 (Bacillus subtilis 168CA, UniProt P39787 1-224); experiment: fluorescence polarisation; FP: 10 mM HEPES-KOH pH 7.5, 1 mM Mg acetate, 100 mM K glutamate, 20 C, 1.875 nM DNA, DnaD up to 500 nM, 10 min; Bpa crosslinking conditions not in material; conditions: protein: recombinant; tags: His14-SUMO tag removed; chain copies: 4; label: fluorescein 5'
T4 sequence: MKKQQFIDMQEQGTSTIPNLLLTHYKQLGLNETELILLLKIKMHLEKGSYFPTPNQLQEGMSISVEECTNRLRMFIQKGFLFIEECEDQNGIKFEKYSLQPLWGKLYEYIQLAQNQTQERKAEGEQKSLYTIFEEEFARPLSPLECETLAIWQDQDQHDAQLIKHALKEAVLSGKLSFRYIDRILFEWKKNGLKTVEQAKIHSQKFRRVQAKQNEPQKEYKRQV

[7] = target: T5, DnaD1-205 (Bacillus subtilis 168CA, UniProt P39787 1-205); experiment: as above; conditions: protein: recombinant; tags: His14-SUMO tag removed; chain copies: 4; label: fluorescein 5'
T5 sequence: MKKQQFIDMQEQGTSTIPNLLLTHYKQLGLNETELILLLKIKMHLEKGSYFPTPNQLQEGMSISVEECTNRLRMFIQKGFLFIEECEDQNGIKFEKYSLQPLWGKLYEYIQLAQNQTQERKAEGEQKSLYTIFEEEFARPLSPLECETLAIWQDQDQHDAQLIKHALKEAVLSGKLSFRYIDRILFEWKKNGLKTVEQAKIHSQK

B1: DnaD^1-205 (truncation lacking the entire C-terminal tail) (domain or fragment, Bacillus subtilis, UniProt P39787 1-205, looked up)
chain: T5 sequence
notes: DnaD, Bacillus subtilis 168CA, residues 1-205; variant lacking the entire DnaD^CTT; made from pSF17; source: E. coli BL21(DE3)-pLysS, purified (HisTrap, His14-SUMO tag digested, second HisTrap flow-through)
[1]
  stoichiometry N: 4

## CTACTATTACTTCTACTA (ssDNA) [DRE (oCW1039)]
[2]
  binding result: binds

## CTCCTCCCCCCCCTCCTC (ssDNA) [polyC with two TnnT (oCW1128)]
[3]
  binding result: no binding
[2]
  binding result: binds
[4]
  binding result: no binding

## CTCCTCTCCTCCCCCCCC (ssDNA) [TnnT spacing (oCW1497)]
[2]
  binding result: binds

## TTTTTTTTTT (ssDNA) [polyT(10) (oCW834)]
[2]
  binding result: no binding

## CTCCTCCCCCTCCTCCCC (ssDNA) [TnnT spacing (oCW1493)]
[2]
  binding result: binds

## CTCCTCCCCCCTCCTCCC (ssDNA) [TnnT spacing (oCW1492)]
[2]
  binding result: binds

## TCACTCAAAGGCGGTAATAC (ssDNA) [ssDNA 1 (oCW1036)]
[2]
  binding result: binds

B2: DnaD^1-224 (truncation lacking the DnaB interaction region, the last eight residues) (domain or fragment, Bacillus subtilis, UniProt P39787 1-224, looked up)
chain: T4 sequence
notes: DnaD, Bacillus subtilis 168CA, residues 1-224; variant lacking the last eight amino acid residues of the DnaD^CTT; made from pSF17; source: E. coli BL21(DE3)-pLysS, purified (HisTrap, His14-SUMO tag digested, second HisTrap flow-through)
[5]
  stoichiometry N: 4

## CTCCTTCCTCCCCCCCCC (ssDNA) [TnnT juxtaposed (oCW1498)]
[2]
  binding result: binds

## CTCCTCCCTCCTCCCCCC (ssDNA) [TnnT spacing (oCW1495)]
[2]
  binding result: binds

## CTCCTCCCCTCCTCCCCC (ssDNA) [TnnT spacing (oCW1494)]
[2]
  binding result: binds

## CTCCTCCCCCCCTCCTCC (ssDNA) [TnnT spacing (oCW1491)]
[2]
  binding result: binds

## TTTTTTTTTTTTTTT (ssDNA) [polyT(15) (oCW1029)]
[2]
  binding result: binds

## GTATTACCGCCTTTGAGTGA (ssDNA) [ssDNA 2 (oCW1124)]
[2]
  binding result: binds

## CTCCTCCTCCTCCCCCCC (ssDNA) [TnnT spacing (oCW1496)]
[2]
  binding result: binds

## TTTTTTTTTTTTTTTTTTTTTTTTTTTTTTTTTTTTTTTT (ssDNA) [polyT(40) (oCW837)]
[2]
  binding result: binds
[6]
  binding result: binds
[7]
  binding result: no binding
